In this test the target is T1, fluorescently tagged eIF2Bβδγε tetramer (eIF2Bβδγε-F) (human, UniProt P49770 2-351; Q9UI10 1-523; Q9NR50 1-452; Q13144 1-721).
T1 construct: eIF2Bβ (eIF2B subunit beta), human; eIF2Bδ (eIF2B subunit delta), human; eIF2Bγ (eIF2B subunit gamma), human; eIF2Bε (eIF2B subunit epsilon), human; also called eIF2Bβγδε-F; tagged tetramers; source: E. coli, co-expression of pMS029 and pJT074, purified as previously described (Tsai et al., 2018); not shown: mNeonGreen with (GS)5 linker, C-terminal, kept; mScarlet-i with (GS)5 linker, C-terminal, …
The test is described as follows: FRET or BRET; in vitro equilibrium FRET (E592/E516), 50 nM eIF2Bβδγε-F with a titration of eIF2Bα2, 1 hr, room temperature, 20 mM HEPES-KOH pH 7.5, 100 mM KCl, 5 mM MgCl2, 1 mM TCEP, 0.5% DMSO. The note with it: both partners purified. Background: In BRET a luciferase serves as donor, and the signal depends on an acceptor being close.

T1 sequence (P49770 2-351, stated change not applied, chain 1 of 4): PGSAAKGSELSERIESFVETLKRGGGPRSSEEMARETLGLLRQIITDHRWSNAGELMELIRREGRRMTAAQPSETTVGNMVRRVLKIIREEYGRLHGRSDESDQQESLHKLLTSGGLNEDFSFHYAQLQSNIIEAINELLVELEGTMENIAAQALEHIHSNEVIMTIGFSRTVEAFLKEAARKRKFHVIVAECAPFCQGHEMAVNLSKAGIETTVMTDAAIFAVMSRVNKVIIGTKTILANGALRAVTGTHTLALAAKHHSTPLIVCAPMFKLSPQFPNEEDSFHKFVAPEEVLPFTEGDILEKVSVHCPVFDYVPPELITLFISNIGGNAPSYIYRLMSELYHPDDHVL
T1 sequence (Q9UI10 whole entry, stated change not applied, chain 2 of 4): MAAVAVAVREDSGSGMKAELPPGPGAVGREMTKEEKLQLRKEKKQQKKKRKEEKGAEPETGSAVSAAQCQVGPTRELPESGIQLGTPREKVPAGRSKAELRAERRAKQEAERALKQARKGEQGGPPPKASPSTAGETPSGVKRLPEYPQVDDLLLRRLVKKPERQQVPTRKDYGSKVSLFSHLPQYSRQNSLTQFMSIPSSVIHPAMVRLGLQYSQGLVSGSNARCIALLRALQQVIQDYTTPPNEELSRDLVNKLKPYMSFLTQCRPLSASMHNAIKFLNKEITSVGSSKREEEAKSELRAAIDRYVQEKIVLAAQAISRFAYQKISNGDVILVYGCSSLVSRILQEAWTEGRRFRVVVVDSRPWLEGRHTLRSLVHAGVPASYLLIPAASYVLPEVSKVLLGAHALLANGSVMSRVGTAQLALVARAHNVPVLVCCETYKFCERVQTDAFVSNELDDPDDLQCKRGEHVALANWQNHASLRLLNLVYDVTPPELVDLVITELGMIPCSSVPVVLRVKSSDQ
T1 sequence (Q9NR50 whole entry, stated change not applied, chain 3 of 4): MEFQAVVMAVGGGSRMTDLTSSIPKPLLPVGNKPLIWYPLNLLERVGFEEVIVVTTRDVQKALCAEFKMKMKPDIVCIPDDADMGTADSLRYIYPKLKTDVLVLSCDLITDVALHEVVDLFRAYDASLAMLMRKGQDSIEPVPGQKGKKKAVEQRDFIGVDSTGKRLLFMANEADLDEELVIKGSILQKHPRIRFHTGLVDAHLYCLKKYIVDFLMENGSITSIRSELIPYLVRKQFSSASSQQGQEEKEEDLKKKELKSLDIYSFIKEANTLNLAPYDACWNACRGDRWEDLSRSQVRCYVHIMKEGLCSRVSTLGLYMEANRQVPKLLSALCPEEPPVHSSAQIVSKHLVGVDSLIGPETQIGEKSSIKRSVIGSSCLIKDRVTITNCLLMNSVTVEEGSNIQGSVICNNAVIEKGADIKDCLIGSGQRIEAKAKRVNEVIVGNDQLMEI
T1 sequence (Q13144 whole entry, stated change not applied, chain 4 of 4): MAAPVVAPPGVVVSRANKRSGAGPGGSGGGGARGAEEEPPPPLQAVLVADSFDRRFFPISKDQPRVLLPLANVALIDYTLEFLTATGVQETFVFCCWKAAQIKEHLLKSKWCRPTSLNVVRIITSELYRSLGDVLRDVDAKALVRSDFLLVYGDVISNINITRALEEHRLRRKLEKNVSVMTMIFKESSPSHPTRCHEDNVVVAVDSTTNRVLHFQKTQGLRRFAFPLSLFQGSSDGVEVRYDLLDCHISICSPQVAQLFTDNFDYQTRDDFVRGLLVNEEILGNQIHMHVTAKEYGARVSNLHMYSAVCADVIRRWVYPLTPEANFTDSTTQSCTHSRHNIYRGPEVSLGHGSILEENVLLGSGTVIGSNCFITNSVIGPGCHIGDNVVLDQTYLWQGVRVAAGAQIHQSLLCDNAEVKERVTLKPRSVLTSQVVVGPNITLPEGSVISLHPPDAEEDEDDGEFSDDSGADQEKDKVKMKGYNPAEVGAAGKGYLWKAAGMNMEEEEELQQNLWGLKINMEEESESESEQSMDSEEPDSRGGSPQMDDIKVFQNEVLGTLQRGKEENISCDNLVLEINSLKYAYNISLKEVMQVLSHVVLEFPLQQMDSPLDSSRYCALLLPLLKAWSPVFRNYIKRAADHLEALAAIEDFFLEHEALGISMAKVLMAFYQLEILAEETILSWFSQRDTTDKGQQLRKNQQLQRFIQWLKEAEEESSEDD

B1: eIF2Bα homodimer (eIF2Bα2) (natural protein, human)
chain: MDDKELIEYFKSQMKEDPDMASAVAAIRTLLEFLKRDKGETIQGLRANLTSAIETLCGVDSSVAVSSGGELFLRFISLASLEYSDYSKCKKIMIERGELFLRRISLSRNKIADLCHTFIKDGATILTHAYSRVVLRVLEAAVAAKKRFSVYVTESQPDLSGKKMAKALCHLNVPVTVVLDAAVGYIMEKADLVIVGAEGVVENGGIINKIGTNQMAVCAKAQNKPFYVVAESFKFVRLFPLNQQDVPDKFKYKADTLKVAQTGQDLKEEHPWVDYTAPSLITLLFTDLGVLTPSAVSDELIKLYL
notes: eIF2Bα (eIF2B subunit alpha), human; also called eIFBα2; eIF2Bα homodimers; source: E. coli, expressed separately (pJT075 or pMS027), purified as previously described (Tsai et al., 2018)
B1: the response was half-maximal at 20 nM (EC50).
